Measurements: the supplement of paper PMC12764529
± gives the half width of the 95% confidence interval.

test: folding stability dG unfold from trypsin proteolysis; higher = more stable
Summary of the method: (§1)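 Digests were run with trypsin and chymotrypsin at 11 concentrations in threefold dilutions, plus a no-protease condition, on designed mini-proteins in a PA-tagged cDNA display construct. The mini-proteins were under 80 residues, had no cysteine, and were kept only when AlphaFold2 dimer inter-PAE was above 15. After sequencing, Bayesian fitting of the counts gave K50, from which unfolding free energy was derived against a sequence-predicted unfolded-state K50 and a shared folded-state K50, per protease or combined.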

Row | Sequence | folding stability dG unfold [kJ/mol]
1 | SAGGKEVKVIRITMSRDQLRDLIEKLFGKPLSLEEILKKLPPGAKVEIRVEENENGEVTVEIVIVKKPSAGG [r13_869_TrROS_Hall] | 13.4 ± 0.962
2 | SAGGSAGGSAGGSKKIYLIKIEIEKKITYDKKTKELKIEEKIKIKIEPLSEEDLEKLLKSAGGSAGGSAGGS [r4_274_TrROS_Hall] | 12.4 ± 1.05
3 | SAGGSAGGSAGSMVSVEVEESELPPPYRLVTEKVSLPGSETVIEVVRDPATGEVLETKVFASSAGGSAGGSA [r18_507_JUSTAS] | 15.8 ± 1.17
4 | SAGGSAGGSKKIIRFKTKEEAEEALKKAKPGETLEITLPNGEKIEVKVTKVERVDGYYYIEVESAGGSAGGS [r12_907_TrROS_Hall] | 10.6 ± 0.335
5 | SAGGSAGGSAGGMLKITITTPGEEREFVIPTPEPEPPGEEEVAKELGLEDVEVEVEEVLESAGGSAGGSAGG [r11_219_JUSTAS] | 0.495 ± 0.167
6 | SAGIPLGPEQLRALAEELAEEFKKKLAEELGLSPEDIKLLSIRRLPDGSIEIELEIPDRTYRYTFPLPDSAG [r5_565_JUSTAS] | 13.4 ± 0.711
7 | SAGMTFPPGMTIEELKELLKKLGIKEVTVTYDKETNTVTVTVTVEGKTITITVTLPAPPVVVKEEGEEKSAG [r5_899_TrROS_Hall] | 7.39 ± 0.247
8 | SAGGSAGGSAGGSGMSVKREVLEVEEFPGPGRVVRVLERVTLPDGTELLREIEEVIDLLSAGGSAGGSAGGS [r4_50_JUSTAS] | 0.915 ± 0.285
9 | SAGGSAGGSAKAVEFYFPAEEYTVEEIIDRLVKELGVPKENIKLAKVEPLENGELKVIVEIPSAGGSAGGSA [r18_118_TrMRF] | 11.8 ± 0.46
10 | SAGGSAMEIEVTLTDPALLEALIAELPYPVEVSEDPTDPSVTRVTLRTETSAEEVREAVARALGLESAGGSA [r15_118_JUSTAS] | 3.06 ± 0.155
11 | SAGGSAPKNVTIEFPIMAKVPDPKWAIDEARELARKQGFENTEIENIHVNPGDPNYVMIDVKMTIPSAGGSA [r15_183_TrROS] | 1.04 ± 0.46
12 | SAGGSFTSEPNPNAPPDQPETITDPSKGVTTEVYFDTEKGTVSTTTTTTGDGTPTTSTSTTAIDPAAASAGG [r13_851_JUSTAS] | 5.56 ± 0.628
13 | SAGGSAGGSAWIPAKEIAKEIKAEYPPGKEREFRFPEEGWWIRIQVNKEGKPKVKVVPPEDISAGGSAGGSA [r18_61_TrROS] | 0.431 ± 0.795
14 | SAGGSAGGSAGGEKVVVPPPEVELRLERREDGYVRLYARNKDGEWEEVAVFKVSPEELELSAGGSAGGSAGG [r7_659_TrROS_Hall] | 12.9 ± 0.795
15 | SAGGLNFEIIEVSPNHIIARFPDAGYIIMAKIKMEWKPKRDPENGKPRYEPKFKIDIHVIPLKPGQPISAGG [r13_322_TrROS] | 13.7 ± 0.377
16 | SAGSMRITVEITFTSPEGVVKTKTVEVDLSSGSIDLSPEVIEAAKKELGLPPNVTVTLTVVEERPELESAGG [r19_287_JUSTAS] | 17 ± 0.92
17 | SAGGSPSTARTVELEFNPNEVTLEKIKELLEELGFKGITSITVESTPDSLTITLTDPNGAPSVVRVISAGGS [r8_86_JUSTAS] | 8.58 ± 0.205
18 | SAGGSAGGSAMVLNVPLEELLKLLGVPKEEVSYKKLEDESYELTLPDGTKVKVIVPKEILESAGGSAGGSAG [r3_477_JUSTAS] | 11.8 ± 0.41
19 | SAGGSAGGSAGIKTESLEEALEYVKKTFPPGTKVEIVVEGDGKPIKITVTVLENGEIKVESAGGSAGGSAGG [r17_69_TrMRF] | 16.6 ± 0.669
20 | SAGGSAGGSEITLVFKTKEEAEKAAEELAKKYNVEVTVEENEETGLYVVTIKLPENGKEITILSAGGSAGGS [r12_635_TrROS_Hall] | 7.03 ± 0.268
21 | SDKIVKLIKKIMEEMGLPITKITDVEPGWIVIRMPNGWKIDIEIDPDDPDVIDIKWQPDPNGGMYMVIPVSA [r9_809_TrROS] | 8.49 ± 0.326

test: folding stability dG unfold (combined trypsin and chymotrypsin); higher = more stable
Summary of the method: as §1

Row | Sequence | folding stability dG unfold [kJ/mol]
22 | SAGGSAGGSAMTLKEKAEAIEKEKGVKITVTVTYPDGTVRTLTPEELSSIPPGPYTLSFTTPSAGGSAGGSA [r18_394_JUSTAS] | 7 ± 0.414
23 | SAGGSAGGSAGGKLPPGQPIKATIEIYIFMISYDGGEPKIHEFPITIEHTFRLPDPDALSAGGSAGGSAGGS [r10_745_TrROS] | 14.3 ± 0.711
24 | SIKIQVHMWPDGFYVIKVRFPGNGKPIHIPFPPNETAEEQVDKIANNLWKQHGFEPVEVDIYPMPKPLPPSA [r9_1205_TrROS] | 8.98 ± 0.502
25 | SAGMGEAELAAARAANPDRPLVPVETYEIPLPPDVSLEEVEKELREKYPPGKVKVTADPATGTVTITISSAG [r5_694_JUSTAS] | 2.86 ± 0.628
26 | SAGGSAMPVVEIEIEVSEEEAEELVKKLKELFPEVEEVEVERTEDGLRIRVRVKLPPLTEEELKAKSAGGSA [r15_166_TrROS_Hall] | 4.35 ± 0.226
27 | SAGGSAGGSAMYTISYDPSTGTVTVSTPSGTTTTVPVADGPVTLTVTNPDGTTTTITLEGASAGGSAGGSAG [r3_499_JUSTAS] | 10.2 ± 0.285
28 | SAGDWVPIEFTIFFPDPNMTIEEIADSALMNLGLPPEDVTVKIKNIHEQPDPDGRPYYHIEVKIYIPDNSAG [r5_528_TrROS] | 11.5 ± 0.962
29 | SAGMPYIKVKITVIHPDNKEKEAEFVFDLKDGKIDLKPEVIEKALEELGIPKDYEIKIEIVEIKEPDESAGG [r19_287_TrMRF] | 11.8 ± 0.669
30 | SAGGSAGGSAGFNFDIELERDPNGRARVMIKIPLPNGKHYIVIYEFDPDSGKMETKIFPVSAGGSAGGSAGG [r11_107_TrROS] | 14.4 ± 0.795
31 | SAGGSAGGSGSLRLRVRSPEQALEWLRRVLPPDFDLTPEELEELVRFLLATSEVTPDGYLLLRSAGGSAGGS [r12_983_TrMRF] | 9.69 ± 0.176
32 | SAGGSAGGSRIVIHWDPDGMFMIEIRDPGESRTFMFDGPEEAENFADKIEDKLGLPVEVTEIYSAGGSAGGS [r12_783_TrROS] | 3.12 ± 0.414
33 | SAGGSAGGSAGGPAAGEKVVAVGVNPNGETSVREFTVHPDDPLGEVYTEDGTRWYFYPGTSAGGSAGGSAGG [r7_132_TrMRF] | 1.43 ± 0.628
34 | SAGGSAGGSAGGMPILEIDVAGDSPDIAIETAKAIVDELPTYNPENVKVIIKDGKVIIGSAGGSAGGSAGGS [r10_182_TrMRF] | 5.24 ± 0.628
35 | SAGGGAEELAKALAEELEKEGLIKEVEVEVRVRPDGSIEVRIKVKVEPPPPPPPVTVVRDENGEERLLSAGG [r13_957_TrROS_Hall] | 4.62 ± 1.3
36 | SSMYLLTVEITRPDGSVSSKTVPVNFAPGTTIDELLKALNLPKSSLATVTVTATEYSGGPPVTSTHTITLSA [r9_755_JUSTAS] | 9.78 ± 0.251
37 | SAGGVTTPVTFTVPPSLDPEEAAERIAKELEEELKAASNKKVKVTVESVTPLPDGTLRVTVVITTEPSAGGS [r8_156_JUSTAS] | 13.8 ± 0.36
38 | SAGGSPFKKETFEFENVKVEVYRLPGPYALALLEVEVSGEPVYYVAVFKLGPDNKLEVVSFGPVDLSAGGSA [r2_171_TrMRF] | 11.6 ± 0.222
39 | SAGMEEEVEERTLPDGSPVTVTTFTDPATGKRTVFVRYPETGEWEVRDEEGNLIKKYGPVSFEEAKKELSAG [r5_757_JUSTAS] | 8.24 ± 0.377
40 | SAGGSAGGSPEAVVVQTPDGRWLVFLRGPDGSVRPIVVPAGRPEALREVAEELGLTVENLDPVSAGGSAGGS [r12_891_TrMRF] | 8.36 ± 0.272
41 | SAGGKKVKVEKVATFELEDGSKITITTVTLPNGEKLVLIEITNPNGEKKTIVVSYEDLKEVLEALKKSAGGS [r16_588_TrROS_Hall] | 11.1 ± 1.17
42 | MKIVEITKIEKKEDGTITITIKIEPVKKGEKLKIRIIHDGKIYEAEIDAESGTITITLPKNVKELKIYIYPS [r1_428_TrROS_Hall] | 14.4 ± 1.17

Row | Sequence | folding stability dG unfold [kJ/mol]
43 | SAGGKEVKVIRITMSRDQLRDLIEKLFGKPLSLEEILKKLPPGAKVEIRVEENENGEVTVEIVIVKKPSAGG [r13_869_TrROS_Hall] | 16.7 ± 1.09
44 | SAGGSAGGSAGGSKKIYLIKIEIEKKITYDKKTKELKIEEKIKIKIEPLSEEDLEKLLKSAGGSAGGSAGGS [r4_274_TrROS_Hall] | 15.4 ± 1.92
45 | SAGGSAGGSAGSMVSVEVEESELPPPYRLVTEKVSLPGSETVIEVVRDPATGEVLETKVFASSAGGSAGGSA [r18_507_JUSTAS] | 14.1 ± 2.47
46 | SAGGSAGGSKKIIRFKTKEEAEEALKKAKPGETLEITLPNGEKIEVKVTKVERVDGYYYIEVESAGGSAGGS [r12_907_TrROS_Hall] | 13.1 ± 0.293
47 | SAGGSAGGSAGGMLKITITTPGEEREFVIPTPEPEPPGEEEVAKELGLEDVEVEVEEVLESAGGSAGGSAGG [r11_219_JUSTAS] | 0.043 ± 0.502
48 | SAGIPLGPEQLRALAEELAEEFKKKLAEELGLSPEDIKLLSIRRLPDGSIEIELEIPDRTYRYTFPLPDSAG [r5_565_JUSTAS] | 13 ± 0.669
49 | SAGMTFPPGMTIEELKELLKKLGIKEVTVTYDKETNTVTVTVTVEGKTITITVTLPAPPVVVKEEGEEKSAG [r5_899_TrROS_Hall] | 10.6 ± 0.711
50 | SAGGSAGGSAGGSGMSVKREVLEVEEFPGPGRVVRVLERVTLPDGTELLREIEEVIDLLSAGGSAGGSAGGS [r4_50_JUSTAS] | 3.64 ± 0.243
51 | SAGGSAGGSAKAVEFYFPAEEYTVEEIIDRLVKELGVPKENIKLAKVEPLENGELKVIVEIPSAGGSAGGSA [r18_118_TrMRF] | 13 ± 0.385
52 | SAGGSAMEIEVTLTDPALLEALIAELPYPVEVSEDPTDPSVTRVTLRTETSAEEVREAVARALGLESAGGSA [r15_118_JUSTAS] | 4.48 ± 0.339
53 | SAGGSAPKNVTIEFPIMAKVPDPKWAIDEARELARKQGFENTEIENIHVNPGDPNYVMIDVKMTIPSAGGSA [r15_183_TrROS] | 1.36 ± 1
54 | SAGGSFTSEPNPNAPPDQPETITDPSKGVTTEVYFDTEKGTVSTTTTTTGDGTPTTSTSTTAIDPAAASAGG [r13_851_JUSTAS] | 5.61 ± 0.753
55 | SAGGSAGGSAWIPAKEIAKEIKAEYPPGKEREFRFPEEGWWIRIQVNKEGKPKVKVVPPEDISAGGSAGGSA [r18_61_TrROS] | 0.456 ± 0.669
56 | SAGGSAGGSAGGEKVVVPPPEVELRLERREDGYVRLYARNKDGEWEEVAVFKVSPEELELSAGGSAGGSAGG [r7_659_TrROS_Hall] | 14.1 ± 1.34
57 | SAGGLNFEIIEVSPNHIIARFPDAGYIIMAKIKMEWKPKRDPENGKPRYEPKFKIDIHVIPLKPGQPISAGG [r13_322_TrROS] | 17.1 ± 0.502
58 | SAGSMRITVEITFTSPEGVVKTKTVEVDLSSGSIDLSPEVIEAAKKELGLPPNVTVTLTVVEERPELESAGG [r19_287_JUSTAS] | 15.4 ± 0.46
59 | SAGGSPSTARTVELEFNPNEVTLEKIKELLEELGFKGITSITVESTPDSLTITLTDPNGAPSVVRVISAGGS [r8_86_JUSTAS] | 10.2 ± 0.197
60 | SAGGSAGGSAMVLNVPLEELLKLLGVPKEEVSYKKLEDESYELTLPDGTKVKVIVPKEILESAGGSAGGSAG [r3_477_JUSTAS] | 12.2 ± 0.544
61 | SAGGSAGGSAGIKTESLEEALEYVKKTFPPGTKVEIVVEGDGKPIKITVTVLENGEIKVESAGGSAGGSAGG [r17_69_TrMRF] | 15 ± 0.502
62 | SAGGSAGGSEITLVFKTKEEAEKAAEELAKKYNVEVTVEENEETGLYVVTIKLPENGKEITILSAGGSAGGS [r12_635_TrROS_Hall] | 8.2 ± 0.795
63 | SDKIVKLIKKIMEEMGLPITKITDVEPGWIVIRMPNGWKIDIEIDPDDPDVIDIKWQPDPNGGMYMVIPVSA [r9_809_TrROS] | 10.9 ± 0.879
